{
  "source": "patent US20130115626A1",
  "about": "(Genentech, published 2013)",
  "binders": {"B1": {"name": "monoclonal anti-NRP1 antibody 7130 (antibody, V domains shown)", "VH": "QLVEESGGGLVTPGGTLTLTCTASGFTISNYHMSWVRQAPGKGLEWIGIIYAVSAATWSATWVKGRFTISKTLTTVDLKMTSLTAADTATYFCARVRAPGDSTYYDLWGPGTLVTVSS", "VL": "AVVMTQTASPVSAVVGGTVTINCQASQTISNNWLSWYQQKPGQPPKLLIYKASILASGVPSRFSGSGSGTEFTLTISGVQCDDAATYYCLYGHYITTSAHNAFGGGTEVVVKG", "notes": "Rabbit monoclonal antibody from a hybridoma (rabbit immunised with human soluble NRP1)"}},
  "biological_target": "T1, full length human NRP1 on transfected HEK-293 cells (human, UniProt O14786 22-923)",
  "T1 construct": "whole, on cells; also called HEK-293 cells transfected with human NRP1",
  "T1 sequence (O14786 22-923)": "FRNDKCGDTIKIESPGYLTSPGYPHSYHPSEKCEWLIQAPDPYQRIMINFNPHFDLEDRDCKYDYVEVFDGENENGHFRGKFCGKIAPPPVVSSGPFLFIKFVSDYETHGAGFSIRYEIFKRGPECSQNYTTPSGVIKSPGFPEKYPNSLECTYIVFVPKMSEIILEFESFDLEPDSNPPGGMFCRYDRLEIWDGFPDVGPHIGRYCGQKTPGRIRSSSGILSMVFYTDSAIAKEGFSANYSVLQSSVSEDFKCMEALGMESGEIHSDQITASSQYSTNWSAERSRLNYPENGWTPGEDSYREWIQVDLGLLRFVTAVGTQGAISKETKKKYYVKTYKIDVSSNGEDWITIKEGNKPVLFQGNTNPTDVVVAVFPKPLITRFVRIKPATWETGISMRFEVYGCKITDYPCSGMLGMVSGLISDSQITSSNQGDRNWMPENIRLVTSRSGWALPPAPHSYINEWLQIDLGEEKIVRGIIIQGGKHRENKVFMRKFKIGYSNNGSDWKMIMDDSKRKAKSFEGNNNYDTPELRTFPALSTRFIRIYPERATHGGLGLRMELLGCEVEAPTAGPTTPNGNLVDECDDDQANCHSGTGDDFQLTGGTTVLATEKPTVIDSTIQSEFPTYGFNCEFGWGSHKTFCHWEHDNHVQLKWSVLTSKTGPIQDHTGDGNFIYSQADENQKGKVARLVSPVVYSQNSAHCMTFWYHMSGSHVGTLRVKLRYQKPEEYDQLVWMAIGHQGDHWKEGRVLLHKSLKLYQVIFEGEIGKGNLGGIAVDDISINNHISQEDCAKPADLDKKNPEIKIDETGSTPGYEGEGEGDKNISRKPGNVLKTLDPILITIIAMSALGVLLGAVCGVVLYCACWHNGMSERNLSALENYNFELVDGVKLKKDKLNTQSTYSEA",
  "test": "immunohistochemistry on transfected HEK-293 cells, antibody at 1 ug/ml; cells with empty vector as negative control",
  "procedure": "Immunohistochemistry (IHC) was performed on freshly cut tissue sections following standard procedure. […] The specificity of the anti-NRP1 antibody was assessed using HEK-293 cells transfected with human NRP1 and empty vector as control (see FIGS. 1A and 1B). To assess expression, whole sections were scored semi-quantitatively on a scale of zero (no expression) to three (very strong signal), according to the intensity of chromagen deposition in ≧10% of neoplastic cells or endothelium.",
  "data": [
    {"binder": "B1", "values": [
      {"measurement": "binding result", "value": "binds"}
    ]}
  ]
}
